Three molecules from US20250129153A1 (Johns Hopkins, published 2025) can be followed below.

The target of test [1] is T1, rat ZnT8 (endogenous, in INS-1E cells) (rat, UniProt P0CE46 1-368).
T1 construct: whole, on cells; also called ZnT8 in rodent β-cells
T1 sequence (looked up): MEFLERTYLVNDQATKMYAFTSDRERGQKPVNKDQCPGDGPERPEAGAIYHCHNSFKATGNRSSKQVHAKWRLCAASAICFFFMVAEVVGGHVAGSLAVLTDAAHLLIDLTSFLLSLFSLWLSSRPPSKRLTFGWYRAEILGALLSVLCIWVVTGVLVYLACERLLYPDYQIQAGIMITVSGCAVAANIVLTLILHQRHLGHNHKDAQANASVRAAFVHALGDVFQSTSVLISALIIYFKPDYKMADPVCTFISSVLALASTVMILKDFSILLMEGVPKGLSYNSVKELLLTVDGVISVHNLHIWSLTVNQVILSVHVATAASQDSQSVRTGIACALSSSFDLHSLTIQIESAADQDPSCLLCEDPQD
Description: immunofluorescence of live INS-1E cells; labeling abolished in ZnT8-knockout INS-1E cells.

In test [2] the target is T2, mouse ZnT8 (endogenous, in mouse pancreatic islets and β-cells) (mouse, UniProt Q8BGG0 1-367).
T2 construct: whole, on cells
T2 sequence (looked up): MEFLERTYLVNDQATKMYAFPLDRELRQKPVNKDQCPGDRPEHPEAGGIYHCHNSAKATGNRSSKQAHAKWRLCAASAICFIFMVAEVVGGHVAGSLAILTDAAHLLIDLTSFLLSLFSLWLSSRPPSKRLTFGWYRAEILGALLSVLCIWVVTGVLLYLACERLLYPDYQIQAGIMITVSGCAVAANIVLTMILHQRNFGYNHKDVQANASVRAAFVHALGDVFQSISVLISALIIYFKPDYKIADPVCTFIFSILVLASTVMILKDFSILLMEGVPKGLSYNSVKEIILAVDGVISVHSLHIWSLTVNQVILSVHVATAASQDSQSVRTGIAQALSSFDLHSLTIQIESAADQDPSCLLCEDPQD
Description: immunofluorescence of dispersed, fixed and permeabilized mouse islet cells.

The target of test [3] is T3, human ZnT8 (endogenous, in EndoC-βH1 cells and human pancreatic islets) (human, UniProt Q8IWU4 1-369).
T3 construct: also called cell surface ZnT8; endogenous ZnT8
T3 sequence: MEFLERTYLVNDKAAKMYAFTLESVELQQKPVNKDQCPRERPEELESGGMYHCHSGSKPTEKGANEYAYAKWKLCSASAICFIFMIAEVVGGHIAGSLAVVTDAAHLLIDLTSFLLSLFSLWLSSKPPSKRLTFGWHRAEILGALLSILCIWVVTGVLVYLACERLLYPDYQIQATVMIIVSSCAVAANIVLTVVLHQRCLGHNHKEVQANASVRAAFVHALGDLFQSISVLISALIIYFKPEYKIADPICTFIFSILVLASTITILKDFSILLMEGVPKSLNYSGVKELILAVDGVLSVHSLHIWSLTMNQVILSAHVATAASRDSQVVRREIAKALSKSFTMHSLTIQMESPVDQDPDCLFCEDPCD
Description: imaging quantification, live EndoC-βH1 cells, 8 °C (cell surface binding). The procedure: (§1) For intracellular IF labeling, live cells were washed with a high glucose (20 mM) Krebs buffer, fixed using a flowcytometry fixation buffer for 20 min at RT, washed again using PBS, permeabilized with flowcytometry permeabilization buffer for 20 min at RT, blocked with PBS plus 5% BSA for 30 min, and then exposed to mAb43 (1:1000), mAb20 (1:1000), anti-CD71 (1:200) or anti-Na+/K+ ATPase (1:200) antibody for 2 hr at room temperature. Secondary antibody immunolabeling, DAPI counterstain and immunofluorescence imaging were performed using the same procedure as above. For experiments with wild-type INS-1E cells or ZnT8-KO INS-1E cells (13), cells were grown in RMPI 1640 medium supplied with 10% (v/v) fetal bovine serum (FBS), 100 units/ml penicillin, 100 μg/ml streptomycin, 10 mM HEPES, 2 mM glutamine, 1 mM sodium pyruvate and 50 μM β-ME. Immunofluorescence labeling and imaging followed the same procedure as above.
(§2) To track cell-surface capture of mAb43 and the ensuing ZnT8-mediated mAb43 endocytosis, a fluorescent A647 secondary antibody to label mAb20 and mAb43, and a CellMask green stain were used to demarcate the cell boundary. Live EndoC-βH1 cells were monitored for antibody surface binding and internalization. mAb43-A647 was rapidly internalized at 37° C. whereas mAb20-A647 exposure yielded no detectable signal (FIG. 5A). […]

Test [4] addresses T3, human ZnT8 (endogenous, in EndoC-βH1 …). Description: imaging quantification, live EndoC-βH1 cells, 37 °C (surface binding and uptake). The procedure:
as §1, §2

For test [5] the target is unchanged. Nature of the test: cell-based or functional assay.
The target of test [6] is T4, human ZnT8-His (full-length ZnT8, isoform-2, C-terminal His-tag) (human, UniProt Q8IWU4-2 1-320).
T4 construct: mature; Expressed in 293-F cells; Used detergent-solubilized on nickel-coated plates, or purified and reconstituted into DOPC/DOPE/DOPG proteoliposomes (mixed orientations); Described as a homodimer; also called flZnT8; detergent-solubilized ZnT8; not shown: C-terminal His-tag
T4 sequence (looked up): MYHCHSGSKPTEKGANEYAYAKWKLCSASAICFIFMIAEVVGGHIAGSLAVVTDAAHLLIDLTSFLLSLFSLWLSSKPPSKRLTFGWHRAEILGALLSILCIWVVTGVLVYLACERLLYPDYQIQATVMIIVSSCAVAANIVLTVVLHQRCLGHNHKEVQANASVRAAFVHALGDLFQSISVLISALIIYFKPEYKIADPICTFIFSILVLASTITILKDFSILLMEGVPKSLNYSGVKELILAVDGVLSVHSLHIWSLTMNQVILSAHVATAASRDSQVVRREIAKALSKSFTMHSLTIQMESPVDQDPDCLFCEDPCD
Nature of the test: ELISA, mAb titration on detergent-solubilized flZnT8 (ZnT8-His) captured on a plate. The source says:
FIGS. 1A-1G show induction of anti-TMD antibodies and biochemical characterization. […] The TMD is imbedded in the lipid bilayer while the CTD is extended into the cytoplasm. […] Error bars are standard errors from 4 ZnT8-KO or 4 NOD mice, *p<0.01 (n=4). […] Note, ZnT8 in proteoliposomes adopted mixed transmembrane orientations exposing either TMD or CTD to antibody binding as indicated. Solid lines are least-square fits of binding curves to a hyperbolic function with r2>0.98.
Comparative ELISAs. For proteoliposome-based ELISA, 4 μg proteoliposomes (containing 5% human ZnT8-His by weight) diluted in 100 μl PBS were added to each well of a high-binding 96-well plate, and incubated overnight at 4° C. The passively immobilized proteoliposomes were blocked with 5% BSA, and then tested with hybridoma culture supernatants. For solution-based ELISA, 293-F cells expressing human ZnT8-His or CTD-His were mechanically lysed using a microfluidizer, and cleared of cell debris by ultracentrifugation. Then, 0.2 μg human ZnT8-His from detergent-solubilized cell membrane or 0.1 μg CTD-His from cell lysate in 100 μl PBS were immobilized to each well of a nickel-coated 96-well plate via the C-terminal His-tag. […] Bound serum antibodies were detected by an HRP-conjugated goat anti-mouse IgG secondary antibody (1:3000) on a Flexstation-3 microplate reader.

Test [7] has as its target T4, human ZnT8-His (full-length ZnT8, …). Nature of the test: ELISA titration to ZnT8 proteoliposomes, hyperbolic fit (printed as binding affinity). How it is done: Comparative ELISAs. For proteoliposome-based ELISA, 4 μg proteoliposomes (containing 5% human ZnT8-His by weight) diluted in 100 μl PBS were added to each well of a high-binding 96-well plate, and incubated overnight at 4° C. The passively immobilized proteoliposomes were blocked with 5% BSA, and then tested with hybridoma culture supernatants. For solution-based ELISA, 293-F cells expressing human ZnT8-His or CTD-His were mechanically lysed using a microfluidizer, and cleared of cell debris by ultracentrifugation. Then, 0.2 μg human ZnT8-His from detergent-solubilized cell membrane or 0.1 μg CTD-His from cell lysate in 100 μl PBS were immobilized to each well of a nickel-coated 96-well plate via the C-terminal His-tag. The immobilized protein was blocked by 5% BSA, and then tested with mouse sera in 3-fold serial dilutions or hybridoma culture supernatants. Bound serum antibodies were detected by an HRP-conjugated goat anti-mouse IgG secondary antibody (1:3000) on a Flexstation-3 microplate reader.
Lymphocytes responsible for the production of antibodies to highly conserved epitopes of ZnT8 may be eliminated during the development of self-tolerance that prevents lymphocytes from attacking self-antigens. […]

Test [8] has the same target. Description: ELISA titrations.
Test [9] deals with human CTD-His (cytosolic C-terminal domain of ZnT8, C-terminal His-tag) (human) (UniProt Q8IWU4). Nature of the test: ELISA, mAb titration on CTD (CTD-His) captured on a plate.
The target of test [10] is T2, mouse ZnT8 (endogenous, in mouse …). Nature of the test: flow cytometry of live dispersed mouse pancreatic cells, chimeric mAb20 and PE anti-human IgG, DCV gate. The procedure:
Tissue dispersion and pancreatic cell labeling. Excised pancreata from C57BL/6 mice were cut into small pieces, minced, and washed with HBSS on a 70-μm strainer to remove hematopoietic cells. The washed tissue pellets were resuspended in accutase and incubated at 37° C. for 30 min. DCV was added to stain DNA of live cells. The dispersed cells were filtrated through the strainer by a gentle spin at 1200 rpm for 2 min. The remaining tissue pellets underwent additional cycles of accutase digestion and cell filtration to achieve a complete cell dispersion. The dispersed cells were pooled and washed with cold cell culture medium with DNase and trypsin/chymotrypsin inhibitors. At this point, cell viability, measured by trypan blue exclusion, was typically over 80%. […] Chimeric mAb20 was used as an isotype control.
Fluorescence activated cell sorting and confocal microscopy analysis. The labeled pancreatic cells were analyzed and sorted immediately on a MoFlo XDP cell sorter (Beckman Coulter) equipped with a 405 and 561 nm laser. Data were collected on forward scatter, side scatter, and 440 nm and 578 nm fluorescence channels. Cells gated on forward and side scatter yielded >1 million single-cell counting events. The sorted cells in R0 or R1 gate were deposited on the glass bottom of a microwell dish by a gentle centrifugation (1200 rpm, 1 min). […]

B1: mAb43 (antibody, V domains shown)
VH: EVQLQQSGPELVKPGASVKIACKASGYTFTGYYMKWVKQSLGKSLEWIGDINPNNGGTNYNQHFKGKATLTVDESSSTAYMELRSLTSEDSAVYYCARGVDWIFAFWGQGTLVTVSP
VL: SIVMTQTPKFLPVSAGDRVTMTCKASQSVGNKVAWYQQKPGQSPKLLIYYATNRYTGVPDRFTGSGSGTDFTFTISSVQVEDLAVYFCQQHYSSPWTFGGGTKLEIK
notes: Hybridoma monoclonal antibody from a ZnT8-proteoliposome-immunized NOD mouse; also called mouse mAb43; anti-TMD mAb
For B1, the binding result in test [1] and in test [2] was “binds” each time. Moreover, the “fold increase of total mAb43-A647 IF-labeling by glucose stimulation (20 mM against 2 mM) at 8 °C” value in [3] was found to be 15 fold. In [4], the “fold increase of total mAb43-A647 IF-labeling by glucose stimulation (20 mM against 2 mM) at 37 °C” value was found to be 22.1 fold. Also, the “net mAb43-A647 uptake (difference in IF signals between 37 °C and 8 °C), fold increase by glucose stimulation (20 against 2 mM)” value in test [5] stood at 30.9 fold. Further, the “EC50 (read off the curve)” value in test [6] is about 2 nM. Moreover, binding in test [7] was characterised by a dissociation constant (Kd) of 0.42 nM. In [8], the “fold increase of mAb43 reactivity, ZnT8 in proteoliposomes against detergent-solubilized ZnT8” value was determined as 6.29 fold.

B2: mAb20 (antibody, mouse IgG1, kappa, V domains shown)
VH: QIQLVQSGPELKKPGETVKISCKASGYIFTNYPMHWVKQAPGKGLKWMGWINTYSGVPTHADDFKGRFAFSLETSANSAFLQINNLKNEDTATYFCTRSRITPTGGYAMDYWGQGTSVTVSS
VL: DVVMTQTPLSLPVSLGDQASISCRSSQSLVHSNGNTYLHWYLQKPGQSPNLLISKVSNRFSGVPERFSGSGSGTDFTLKISRVEAEDLGVYFCSQNTHVPWTFGGGTKLEIKR
notes: Validated anti-CTD control antibody; also called anti-CTD mAb20; mAb20-A647 (mAb20 labeled with a fluorescent A647 secondary antibody)
In the case of B2, the EC50 (read off the curve) in [9] is 0.7 nM; in test [6], about 2 nM. In test [7], this molecule returned an equilibrium dissociation constant (Kd) of 0.57 nM.

B3: chimeric mAb20 (mouse/human) (antibody, V domains shown)
VH: B2 VH
VL: DVVMTQTPLSLPVSLGDQASISCRSSQSLVHSNGNTYLHWYLQKPGQSPNLLISKVSNRFSGVPERFSGSGSGTDFTLKISRVEAEDLGVYFCSQNTHVPWTFGGGTKLEIK
notes: also called mouse/human chimeric mAb20
With B3, the binding result in test [10] is given as “no binding”.
